The source of these data is the supplement of paper PMC12783771.

First the molecules themselves.
B1: library; numbered along this chain (parent)
chain: MNIQIGELAKRTACPVVTIRFYEQEGLLPPPGRSRGNFRLYGEEHVERLQFIRHCRSLDMPLSDVRTLLSYRKRPDQDCGEVNMLLDEHIRQVESRIGALLELKHHLVELREACSGARPAQSCGILQGLSDCVCDTRGTTAHPSD

In data set [1] the parent is B1. The data set can be described thus: sfGFP reporter fluorescence (15 h) (µM FITC); higher = higher leak. To be noted: library round: Round 0; ligand: none. The gist of the method: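 PCR-made linear PbrR templates (Echo-normalized to 5 nM) were expressed in BL21 Star (DE3) extract (PANOx-SP) with pPbrR-sfGFP reporter plasmid and 30 μg/mL GamS. Reactions were 1 μL, Echo-assembled, with 1 µM lead chloride, 30 µM zinc acetate or no metal, incubated 15 hr at 30 °C. Endpoint sfGFP fluorescence (485/528 nm, Synergy Neo2) was converted to µM FITC via standard curves in 50 mM sodium borate pH 8.5. Up to three biological replicates.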

Data set [2] covers variants of B1. The data set can be described thus: sfGFP reporter fluorescence (15 h) (µM FITC); higher = stronger transcriptional activation. To be noted: library round: Round 0. As for the experimental part: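 Cell-free (BL21 Star DE3 extract, PANOx-SP) biosensing: 1 µL Echo-assembled reactions with linear PbrR variant templates (5 nM) and pPbrR-sfGFP reporter, with 1 µM Pb (lead chloride), 30 µM Zn (zinc acetate) or no ligand; endpoint sfGFP fluorescence after 15 h at 30 °C, calibrated as µM FITC. Round 0 library (alanine scan, site saturation, combinatorial) of PbrR from Cupriavidus metallidurans; 2 biological replicates.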

± gives the standard deviation of the averaged measurements.

As for MNIQIGELAKRTACPTVTIRFYEQEGLLPPPGRSRGNFRLYGEEHVERLQFIRHCRSLDMPLSDVRTLLSYRKRPDQDCGEVNMLLDEHIRQVESRIGALLELKHHLVELREACSGARPAQSCGILQGLSDCVCDTRGTTAHPSD [V16T], the sfGFP reporter fluorescence in data set [1] came to 0.0641 ± 0.0031; in data set [2] (ligand: 1 µM Pb) it was 0.0982 ± 0.0021; in data set [2] (ligand: 30 µM Zn), 1.14 ± 0.09.

For the variant MNIQIGELAKRTACPVVTIRFYEQEGLLPPPGRSRGNFRLYGEEHVERLQFIRHARSLDMPLSDVRTLLSYRKRPDQDCGEVNMLLDEHIRQVESRIGALLELKHHLVELREACSGARPAQSCGILQGLSDCVCDTRGTTAHPSD [C55A], the sfGFP reporter fluorescence in data set [1] came to 0.0647 ± 0.0013; in data set [2] (ligand: 1 µM Pb), 0.126 ± 0.013; in data set [2] (ligand: 30 µM Zn) it was 1.28 ± 0.066.

Turning to MNIQIGELAKRTACPVVTIRFYEQEGLLPPPGRSRGNFRLYGEEHVERLQFIRHCRSLDMPLSDVRTLLSYRKRPDQDCGEVNMLLDEHIRQVESRIGALLELKHHLVELREACSGARPAQSCGIHQGLSDCVCDTRGTTAHPSD [L126H], the sfGFP reporter fluorescence in data set [1] was 0.0603 ± 0.0018; in data set [2] (ligand: 1 µM Pb) it was 0.0588 ± 0.00078; in data set [2] (ligand: 30 µM Zn) it was 0.0552 ± 0.006.

Turning to MNIQIGELAKRTACPVVTIRFYEQEGLLPPPGRSRGNFRLYGEEHVERLQFIRHCRSLDMPLSDVRTLLSYRKRPDQDCGEVNMLLDEHIRQVESRIGALLELKHHLVELREACSGARPAQSCGILQGLSDCVCDTRGATAHPSD [T139A], the figures for the sfGFP reporter fluorescence in data set [1], in data set [2] (ligand: 1 µM Pb) and in data set [2] (ligand: 30 µM Zn) were 0.0616 ± 0.0015, 0.0737 ± 0.0036 and 0.7601 ± 0.0031, respectively.

In the case of MNIQIGELAKRTACPVVTIRFYEQEGLLPPPGRSRGNFRLYGEEHVERLQFIRHCRSLDMPLSDVRTLLSYRKRPDQDCGEVNMLLDEHIRQVESRIGALLELKHHLVELREACSGARPAQSTGILQGLSDCVCDTRGTTAHPSD [C123T], the sfGFP reporter fluorescence in data set [1] was 0.0586 ± 0.0021; in data set [2] (ligand: 1 µM Pb), 0.0572 ± 0.0015; in data set [2] (ligand: 30 µM Zn), 0.0568 ± 0.0036.

In the case of MNIQIGELAKRTACPVVTIRFYEQEGLLPPPGRSRGNFRLYGEEHVERLQFIRHCRSLDKPLSDVRTLLSYRKRPDQDCGEVNMLLDEHIRQVESRIGALLELKHHLVELREACSGARPAQSCGILQGLSDCVCDTRGTTAHPSD [M60K], the sfGFP reporter fluorescence in data set [1] came out at 0.0605 ± 0.001; in data set [2] (ligand: 1 µM Pb), 0.061 ± 0.0018; in data set [2] (ligand: 30 µM Zn), 0.0625 ± 0.0029.

MNIQIGELAKRTACPVVTIRFYEQEGLLPPPGRSRGNFRLYGEEHVERLQFIRHCRSLDMPCSDVRTLLSYRKRPDQDCGEVNMLLDEHIRQVESRIGALLELKHHLVELREACSGARPAQSCGILQGLSDCVCDTRGTTAHPSD [L62C]: the sfGFP reporter fluorescence came out at 0.061 ± 0.0018 in data set [1], 0.0651 ± 0.0013 in data set [2] (ligand: 1 µM Pb) and 0.0995 ± 0.00078 in data set [2] (ligand: 30 µM Zn).

Take MNIQIGELAKRTACPVVTIRFYEQEGLLPPPGRSRGNFRLYGEEHVERLQFIRHCRSLDMPLSDVRTLLSYRKRPDQDCGEVNMLLDEHIRQVESRIGALLELKHHLVELREACSGARPAQSCGYLQGLSDCVCDTRGTTAHPSD [I125Y]: the sfGFP reporter fluorescence in data set [1] was 0.059 ± 0.0021; in data set [2] (ligand: 1 µM Pb) it was 0.0588 ± 0.0023; in data set [2] (ligand: 30 µM Zn) it was 0.0552 ± 0.0029.

Turning to MNIQIGELAKRTACPVVTIRFYEQEGLLPPPGRSRGNFRLYGEEHVERLQFIRHCRSLDMPLSDVRTLLSYRKRPDQDCGEVNMLLDEHIRQVESRIGALLELKHHLVELREACSGARPAQSCGSLQGLSDCVCDTRGTTAHPSD [I125S], the sfGFP reporter fluorescence in data set [1] worked out at 0.0597 ± 0.0021; in data set [2] (ligand: 1 µM Pb), 0.0574 ± 0.0013; in data set [2] (ligand: 30 µM Zn) it was 0.0568 ± 0.0021.

Regarding MNIQIGELAKRTACPVVTIRFYEQEGLLPPPGRSRGNFRLYGEEHVERLQFIRHCRSLDMPLSDVRTLLSYRKRPDQDCGEVNMLLDEHIRQVESRIGALLELKHHLVELTEACSGARPAQSCGILQGLSDCVCDTRGTTAHPSD [R111T], the sfGFP reporter fluorescence was 0.0599 ± 0.00078 in data set [1], 0.07752 ± 0.00026 in data set [2] (ligand: 1 µM Pb) and 0.535 ± 0.081 in data set [2] (ligand: 30 µM Zn).

Take MNIQIGELAKRTACPVVTIYFYEQEGLLPPPGRSRGNFRLYGEEHVERLQFIRHCRSLDMPLSDVRTLLSYRKRPDQDCGEVNMLLDEHIRQVESRIGALLELKHHLVELREACSGARPAQSCGILQGLSDCVCDTRGTTAHPSD [R20Y]: the values for the sfGFP reporter fluorescence in data set [1], in data set [2] (ligand: 1 µM Pb) and in data set [2] (ligand: 30 µM Zn) were 0.06249 ± 0.00026, 0.06377 ± 0.00052 and 0.124 ± 0.0018, respectively.

Consider MNIQIGELAKRTACPVVTIRFYEQEGLLPPPGRSRGNFRLYGEEHVERLQFIRHCRSLDMPLSDVRTLLSYRKRPDQDCGEVNMLLDEHIRQVESRIGALLELKHHLVELREACSGARPAQSCGILQGGSDCVCDTRGTTAHPSD [L129G], for which the sfGFP reporter fluorescence came out at 0.0526 ± 0.00078 in data set [1], 0.0542 ± 0.001 in data set [2] (ligand: 1 µM Pb) and 0.0509 ± 0.0021 in data set [2] (ligand: 30 µM Zn).

MNIQIGELAKRTACPVVTIRFYEQEGLLPPPGRSRYNFRLYGEEHVERLQFIRHCRSLDMPLSDVRTLLSYRKRPDQDCGEVNMLLDEHIRQVESRIGALLELKHHLVELREACSGARPAQSCGILQGLSDCVCDTRGTTAHPSD [G36Y]: the figures for the sfGFP reporter fluorescence in data set [1], in data set [2] (ligand: 1 µM Pb) and in data set [2] (ligand: 30 µM Zn) were 0.0605 ± 0.0026, 0.0691 ± 0.0023 and 0.275 ± 0.031, respectively.

Regarding MNIQIGELAKRTACPVVTIRFYEQEGLLPPPGRSRGNFRLYGEEHVERLQFIRHCRSLDMPLSDVRTLLSYRKRPDQDCGEVNMLLDEHIRQVESRIGALLELKHHLVELREACSGARPAQSCGILQGLSDCVCDTRGTTAHKSD [P143K], the sfGFP reporter fluorescence in data set [1] was 0.0581 ± 0.00078; in data set [2] (ligand: 1 µM Pb), 0.07293 ± 0.00052; in data set [2] (ligand: 30 µM Zn), 0.889 ± 0.15.
